How the values were obtained:
RbABC [1] = target: T1, RbABC (Homo sapiens, UniProt P06400); test: Isothermal titration calorimetry of E2F constructs binding to RbABC; conditions: ITC
T1 construct: His6-RbABC (RESIDUES 380-929); made in house; host or cells: E. coli
T1 sequence (P06400 380-928 limits assumed): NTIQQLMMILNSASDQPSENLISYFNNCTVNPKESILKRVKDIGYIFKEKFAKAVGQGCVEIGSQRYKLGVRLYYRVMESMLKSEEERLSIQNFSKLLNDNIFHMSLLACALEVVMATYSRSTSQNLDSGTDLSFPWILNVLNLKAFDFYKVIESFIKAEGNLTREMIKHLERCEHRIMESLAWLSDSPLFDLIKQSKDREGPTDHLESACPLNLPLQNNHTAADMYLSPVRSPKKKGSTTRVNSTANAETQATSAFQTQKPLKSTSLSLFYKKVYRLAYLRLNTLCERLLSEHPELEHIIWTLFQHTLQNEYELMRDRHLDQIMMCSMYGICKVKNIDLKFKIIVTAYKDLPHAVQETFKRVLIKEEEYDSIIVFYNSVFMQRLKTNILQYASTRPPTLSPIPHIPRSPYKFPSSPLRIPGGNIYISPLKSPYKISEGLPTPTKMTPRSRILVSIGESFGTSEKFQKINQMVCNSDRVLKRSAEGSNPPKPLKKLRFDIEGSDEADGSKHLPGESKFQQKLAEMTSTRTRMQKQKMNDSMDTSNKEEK
Procedure: (§1) (B) Summary of dissociation constants obtained by ITC measurements. The quoted errors are those produced by fitting the data to a two-state model. For the interaction of E2F(243-437) to RbAB and RbABC the affinities are too high to measure reliably and we have therefore quoted the upper limits of the dissociation constants.
(§2) Binding of the various E2F constructs to RbAB and RbABC was measured by isothermal titration calorimetry using a MicroCal Omega VP-ITC machine (MicroCal Inc., Northampton, USA). The E2F constructs at a concentration between 100-150 μM were titrated into 12-15 μM Rb at a temperature of 22° C. Proteins were dialysed against 50 mM Tris pH 7.6, 100 mM NaCl and 1 mM TCEP. After subtraction of the dilution heats, calorimetric data was analysed using the evaluation software MicroCal Origin v5.0 (MicroCal Software Inc.). For all of the titrations, the stoichiometry of ligand binding to Rb was very close to 1.0. For E2F(243-437) binding to Rb, the binding affinity and the heat change associated with binding were such that we could only establish that binding was tighter than 10 nM.

RbABC [2] = target: T2, RbABC (Homo sapiens, UniProt P06400); test: RbABC
T2 construct: His6-RbABC (RESIDUES 380-929); made in house; host or cells: E. coli
T2 sequence (P06400 whole entry, looked up): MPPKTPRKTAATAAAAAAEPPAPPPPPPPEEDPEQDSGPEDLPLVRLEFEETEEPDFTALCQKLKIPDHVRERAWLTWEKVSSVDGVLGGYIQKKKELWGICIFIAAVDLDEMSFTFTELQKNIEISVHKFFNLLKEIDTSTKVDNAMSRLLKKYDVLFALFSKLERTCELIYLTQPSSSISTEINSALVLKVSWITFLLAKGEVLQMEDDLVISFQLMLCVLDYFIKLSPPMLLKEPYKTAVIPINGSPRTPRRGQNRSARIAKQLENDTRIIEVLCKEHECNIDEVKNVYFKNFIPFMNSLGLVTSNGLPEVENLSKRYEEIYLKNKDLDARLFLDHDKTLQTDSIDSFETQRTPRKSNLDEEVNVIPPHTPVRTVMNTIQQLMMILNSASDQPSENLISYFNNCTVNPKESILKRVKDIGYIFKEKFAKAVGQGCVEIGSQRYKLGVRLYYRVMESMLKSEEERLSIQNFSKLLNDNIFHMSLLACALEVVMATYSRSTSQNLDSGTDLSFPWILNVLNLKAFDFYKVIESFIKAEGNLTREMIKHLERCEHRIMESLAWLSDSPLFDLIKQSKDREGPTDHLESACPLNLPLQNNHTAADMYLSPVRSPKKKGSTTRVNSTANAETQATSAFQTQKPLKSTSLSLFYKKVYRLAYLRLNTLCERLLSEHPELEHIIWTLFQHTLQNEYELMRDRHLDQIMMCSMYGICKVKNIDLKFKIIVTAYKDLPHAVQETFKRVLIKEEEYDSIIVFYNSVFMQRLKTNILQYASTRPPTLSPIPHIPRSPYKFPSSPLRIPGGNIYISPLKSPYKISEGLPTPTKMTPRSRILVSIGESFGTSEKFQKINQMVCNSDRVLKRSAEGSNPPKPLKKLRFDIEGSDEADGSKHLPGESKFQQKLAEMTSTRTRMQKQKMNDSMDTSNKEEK
Description: (§3) Table printed on a drawing sheet, FIG. 2B
(§4) The patent's description of the figure: FIG. 2.
(§5) First copying reader's note: Binding constants of E2F fragments to the Rb constructs RbAB and RbABC; the error is printed in the same cell as the value.
Where the first naming reader finds the target: head: RbABC

RbAB [3] = target: T3, RbAB (Homo sapiens, UniProt P06400); test: Isothermal titration calorimetry of E2F constructs binding to RbAB; conditions: ITC, binding to pRbAB
T3 construct: residues 372 to 589 of the A domain and 636 to 787 of the B domain; GST (with Prescission protease site) (N, cleaved yes); engineered thrombin site (LVPRGS) at the A-domain end of the A-B linker (C, cleaved yes); engineered thrombin site (LVPRGS) at the B-domain end of the A-B linker (N, cleaved yes); made in house; host or cells: E. coli
T3 sequence (P06400 372-589): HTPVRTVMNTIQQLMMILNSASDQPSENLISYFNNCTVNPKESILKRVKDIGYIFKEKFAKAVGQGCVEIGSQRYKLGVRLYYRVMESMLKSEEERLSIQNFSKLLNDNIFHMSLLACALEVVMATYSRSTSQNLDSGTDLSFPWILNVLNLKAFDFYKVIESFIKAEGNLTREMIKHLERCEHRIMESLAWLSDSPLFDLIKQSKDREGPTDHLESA
T3 sequence (P06400 636-787): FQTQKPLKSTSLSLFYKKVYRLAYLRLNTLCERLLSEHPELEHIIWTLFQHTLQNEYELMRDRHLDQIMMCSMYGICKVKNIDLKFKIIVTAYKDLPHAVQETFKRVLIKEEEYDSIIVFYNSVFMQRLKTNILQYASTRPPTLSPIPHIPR
Procedure: The panel represents the experiment where E2F(243-437) is titrated into RbAB.
as §1, §2

RbAB [4] = target: T4, RbAB (Homo sapiens, UniProt P06400); test: RbAB
T4 construct: residues 372 to 589 of the A domain and 636 to 787 of the B domain; GST (with Prescission protease site) (N, cleaved yes); engineered thrombin site (LVPRGS) at the A-domain end of the A-B linker (C, cleaved yes); engineered thrombin site (LVPRGS) at the B-domain end of the A-B linker (N, cleaved yes); made in house; host or cells: E. coli
T4 sequence (P06400 whole entry, looked up): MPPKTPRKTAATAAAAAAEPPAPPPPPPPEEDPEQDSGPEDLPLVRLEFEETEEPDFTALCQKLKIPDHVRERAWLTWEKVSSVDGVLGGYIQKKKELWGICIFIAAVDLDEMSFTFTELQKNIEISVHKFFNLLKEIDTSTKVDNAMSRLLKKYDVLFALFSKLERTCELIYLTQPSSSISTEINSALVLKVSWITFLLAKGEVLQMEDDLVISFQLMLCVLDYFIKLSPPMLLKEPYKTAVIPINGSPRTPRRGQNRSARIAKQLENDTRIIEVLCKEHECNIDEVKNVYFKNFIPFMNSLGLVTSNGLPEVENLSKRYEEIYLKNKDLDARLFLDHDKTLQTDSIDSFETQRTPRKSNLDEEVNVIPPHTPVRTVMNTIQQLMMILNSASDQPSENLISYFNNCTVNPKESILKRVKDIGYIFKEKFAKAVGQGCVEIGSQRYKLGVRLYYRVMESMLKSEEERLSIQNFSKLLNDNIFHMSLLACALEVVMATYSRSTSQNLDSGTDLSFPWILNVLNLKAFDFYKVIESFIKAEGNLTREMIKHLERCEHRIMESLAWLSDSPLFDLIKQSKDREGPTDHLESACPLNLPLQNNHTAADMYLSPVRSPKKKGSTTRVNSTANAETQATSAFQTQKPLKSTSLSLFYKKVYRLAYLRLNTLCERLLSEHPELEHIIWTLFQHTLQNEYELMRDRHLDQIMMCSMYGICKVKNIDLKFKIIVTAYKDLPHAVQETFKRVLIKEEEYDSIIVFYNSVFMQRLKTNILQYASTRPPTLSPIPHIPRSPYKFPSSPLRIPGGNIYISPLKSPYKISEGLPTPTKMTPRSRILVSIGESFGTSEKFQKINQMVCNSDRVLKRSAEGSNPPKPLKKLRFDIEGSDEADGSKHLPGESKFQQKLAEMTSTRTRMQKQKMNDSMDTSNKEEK
Description: as §3, §4, §5
Where the first naming reader finds the target: head: RbAB

binds stronger than either of the two shorter E2F fragments (RbABC [1]): at least 16 fold | Kd (RbABC [2]): < 10 nM | binds stronger than either of the two shorter E2F fragments (RbAB [3]): at least 16 fold | Kd (RbAB [4]): < 10 nM
B1: E2F(243-437): Recombinant human E2F1(243-437) expressed in E. coli (protein, UniProt Q01094 243-437, looked up, fragment)
chain: LAYVTCQDLRSIADPAEQMVMVIKAPPETQLQAVDSSENFQISLKSKQGPIDVFLCPEETVGGISPGKTPSQEVTSEEENRATDSATIVSPPPSSPPSSLTTDPSQSLLSLEQEPLLSRMGSLRAPVDEDRLSPLVAADSLLEHVREDFSGLLPEEFISLSPPHEALDYHFGLEEGEGIRDLFDCDFGDLTPLDF

— patent publication US20060234906A1, “Structure of a complex of retinoblastoma protein bound to e2f, and uses thereof” (priority 2002, published 2006)
